In the supplement of paper PMC9233669:
Fewer inactive variants are shown than the library holds.

Assays:
biotinyl-Phe-oxazolone = assay: self-aminoacylation, catalytic enhancement (BFO) (fold over background); higher = more active; k-Seq, kA / k0A0; sequences stand for … in GGGAAUGGAUCCACAUCUACGAAUUC…UUCACUGCAGACUUGACGAAGCUG
Procedure, shortened: (§1)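 Catalytic enhancement equals the median kA over the uncatalyzed rate, the latter read from the low-activity peak of a bimodal Gaussian fit. Values of kA came from fitting each sequence's fraction reacted to a pseudo-first-order model, with 1000 bootstraps. Reacted RNA was captured with streptavidin and quantified by triplicate qPCR and Illumina sequencing after 90 minutes at room temperature with 2–1250 μM biotinyl-aminoacyl-oxazolone and 0.43 μM mutagenized RNA pools bearing a 21-nt variable region.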

biotinyl-Ile-oxazolone = assay: self-aminoacylation, catalytic enhancement (BIO) (fold over background); higher = more active; k-Seq, kA / k0A0; sequences stand for … in GGGAAUGGAUCCACAUCUACGAAUUC…UUCACUGCAGACUUGACGAAGCUG
Procedure, shortened: as §1

biotinyl-Met-oxazolone = assay: self-aminoacylation, catalytic enhancement (BMO) (fold over background); higher = more active; k-Seq, kA / k0A0; sequences stand for … in GGGAAUGGAUCCACAUCUACGAAUUC…UUCACUGCAGACUUGACGAAGCUG
Procedure, shortened: as §1

biotinyl-Val-oxazolone = assay: self-aminoacylation, catalytic enhancement (BVO) (fold over background); higher = more active; k-Seq, kA / k0A0; sequences stand for … in GGGAAUGGAUCCACAUCUACGAAUUC…UUCACUGCAGACUUGACGAAGCUG
Procedure, shortened: as §1

biotinyl-Leu-oxazolone = assay: self-aminoacylation, catalytic enhancement (BLO) (fold over background); higher = more active; k-Seq, kA / k0A0; sequences stand for … in GGGAAUGGAUCCACAUCUACGAAUUC…UUCACUGCAGACUUGACGAAGCUG
Procedure, shortened: as §1

biotinyl-Trp-oxazolone = assay: self-aminoacylation, catalytic enhancement (BWO) (fold over background); higher = more active; k-Seq, kA / k0A0; sequences stand for … in GGGAAUGGAUCCACAUCUACGAAUUC…UUCACUGCAGACUUGACGAAGCUG
Procedure, shortened: as §1

Sequence	self-aminoacylation (biotinyl-Phe-oxazolone)	self-aminoacylation (biotinyl-Ile-oxazolone)	self-aminoacylation (biotinyl-Met-oxazolone)	self-aminoacylation (biotinyl-Val-oxazolone)	self-aminoacylation (biotinyl-Leu-oxazolone)	self-aminoacylation (biotinyl-Trp-oxazolone)
CUACUUCAAACUACCGGUCUG [Fam1A.1 aminoacylation ribozyme variant]	0.75	1.1	0.809	0.832	0.868	0.846
CUACUUCAAACUAUCGGUAUG [Fam1A.1 aminoacylation ribozyme variant]	0.842	0.715	0.557	0.813	0.601	0.665
CUACUUCAAACUAUCGGUCUA [Fam1A.1 aminoacylation ribozyme variant]	1.08	0.944	0.729	0.912	0.696	0.62
CUACUUCAAACUAUCGGUCUU [Fam1A.1 aminoacylation ribozyme variant]	0.957	1.03	0.833	0.968	0.822	0.796
CUACUUCAAACUAUUGGUCUG [Fam1A.1 aminoacylation ribozyme variant]	0.825	0.995	0.897	0.869	0.92	0.501
CUACUUCAAAGAAUCGAUCUG [Fam1A.1 aminoacylation ribozyme variant]	0.544	0.679	0.454	0.595	0.615	0.506
CUACUUCAAAGAAUCGGUCUU [Fam1A.1 aminoacylation ribozyme variant]	2.46	1.29	0.926	1.06	1.14	2.13
CUACUUCAAAGAAUUGGUCUG [Fam1A.1 aminoacylation ribozyme variant]	0.605	1.18	0.954	0.912	1.08	0.806
CUACUUCAAAGAUUCGGUCUG [Fam1A.1 aminoacylation ribozyme variant]	0.503	1.01	1.09	1.08	0.97	0.679
CUACUUCAAAGCAUCGGUCUG [Fam1A.1 aminoacylation ribozyme variant]	0.786	0.857	0.802	0.939	0.898	0.794
CUACUUCAAAGGAUCGGUCUG [Fam1A.1 aminoacylation ribozyme variant]	0.753	0.925	1.04	0.902	0.912	0.738
CUACUUCAACCAAUCAGUCUG [Fam1A.1 aminoacylation ribozyme variant]	13.9	0.747	0.541	0.701	0.794	5.54
CUACUUCAACCAAUCGGACUG [Fam1A.1 aminoacylation ribozyme variant]	10.7	0.79	0.814	0.946	0.851	4.9
CUACUUCAACGAAUCGGUCUG [Fam1A.1 aminoacylation ribozyme variant]	4.58	0.847	0.753	0.833	1.02	3.92
CUACUUCAAGCAAUCGGGCUG [Fam1A.1 aminoacylation ribozyme variant]	3.43	2.01	1.8	1.61	2.58	3.87
CUACUUCAAGCAAUCGGUAUG [Fam1A.1 aminoacylation ribozyme variant]	8.16	0.94	1.07	0.963	1.02	4.52
CUACUUCAAGCAAUCGGUGUG [Fam1A.1 aminoacylation ribozyme variant]	3.56	1.26	1.59	1.24	1.83	3.13
CUACUUCAAGCCAUCGGUCUG [Fam1A.1 aminoacylation ribozyme variant]	0.772	0.89	0.729	1.04	1.15	0.696
CUACUUCAAUCAAACGGUCUG [Fam1A.1 aminoacylation ribozyme variant]	0.638	0.637	0.639	0.794	0.671	0.481
CUACUUCAAUCAAUCGGUCGG [Fam1A.1 aminoacylation ribozyme variant]	15.8	1.15	1.39	1.04	1.47	12.2
CUACUUCAAUCAAUCGGUCUA [Fam1A.1 aminoacylation ribozyme variant]	13.7	0.972	0.871	0.914	1.02	7.18
CUACUUCAAUCAAUCGGUCUG [Fam1A.1 aminoacylation ribozyme variant]	31.7	1.01	1.04	1.03	1.44	17.9
CUACUUCAAUCAAUCGGUUUG [Fam1A.1 aminoacylation ribozyme variant]	26.6	0.895	0.886	0.96	1.21	15.1
CUACUUCAAUCACUCGGUCUG [Fam1A.1 aminoacylation ribozyme variant]	0.649	0.866	0.68	0.835	0.746	0.688
CUACUUCAAUCUAUCGGUCUG [Fam1A.1 aminoacylation ribozyme variant]	1.28	0.888	0.902	0.907	0.836	0.936
CUACUUCACACAAUCGGCCUG [Fam1A.1 aminoacylation ribozyme variant]	0.896	1.69	1.75	1.86	1.75	1.72
